# Laboratory results published in the domain aggregation screens of Martell et al. (2025).
# Test: soluble fraction after stress (log2 fold change); higher = more stays soluble; pooled small domains, quantitative proteomics
# Conditions: stress: 50 degC
# Summary of the method: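 Pooled custom libraries of small protein domains were measured in a high-throughput format, with quantitative proteomics as the read-out. Each library was stressed at 50°C. Aggregation propensity is given as the base-two logarithm of the fold change in how much of each protein stays soluble after the stress. Higher values mean a larger share of the protein remains in solution.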
row,Sequence,soluble fraction (log2)
1,HMEKGNEEALEQAREAILAVQSGEKYVDLDPANAAIRRKQHALAQASDLVSQSYGKDPNRYVRIFR,0.34
2,HMEKINLLVENNDNYRLDKIIALNMEELSRTQIQEMIGQGLVLVNGKVEKASYKTKLNDQIEITIED,0.0401
3,HMEKKKVPEVAGQDEAAARNVMTNSGFVVDVEQKEDDNVPAGKVITTAPAGGVEVVEGTKIILYVSKGSN,0.113
4,HMEKKPYGEMHNVMLTDEELEKLRHDYPAHFAEYIQRLSLHIDAKGARYKSHYAVIRKWLIADGVKA,-0.679
5,HMEKLIRIKRLIKQLNEYRDSYYNEARPVVSDAAYDKLFDELSELEKETGVVYANSPTQTVG,-0.149
6,HMEKPTEITLSNRVSVQELAEKMYVSETDIIRTLFLDGRIININQVLDIDTAIRVGEQLGIKIKII,-0.496
7,HMEKPTRNKLVEIIIQNKNVTTEQMANLLNISRRAVAKHIKKLQEEGIIRRIGPDFGGHWEIVK,0.0258
8,HMEKPYTPPANLNEIQSYEELSKAVQYYNKVKDAATTDADRLKAQQSIDTLEDMRKAWDAASST,0.072
9,HMEKSLSAQVYEKIKAGIISLKYPPGSVLKERELSESLGVSRTPVREAIQRLSQESWLVPGEGKRMQVRP,0.134
10,HMEKTLAERVNDILAEIKMTKQELAMQLNISRSAVSQYLNGKYSSNPEAIEARLRDFVSSYDRG,-0.0754
11,HMEKYIVEAEEQGKRLDMYISSKDEELTRTSAQRLIEQGDILVNNKKVKVAYKVSEGDIIAVEKQ,0.0849
12,HMELDLPLEELGLSTRVLHSLKEEGIESVRALLALNLKDLKNIPGIGERSLEEIKEALEKKGFTLK,-0.0498
13,HMELEENTERVLNILIENDIISENDIAEKLEVKINGARKALYKLKEVGFVEYTKERDEEKKWWYIYFWKLN,-0.0109
14,HMELEKIRPDLDGLEIMAILGISPSPIVGRAYQYLLDLRMDRGPLGPDAAKAELLNWWSLNQPK,-1.3
15,HMELGRQDSAQLGRWAAGILAKNGKKITGRTMEFFLSRTGDDMENISSELEKLISYTLGREVITEEDIEAV,-0.351
16,HMELGWYVRLRRRELGLSVTALAEKAGMSQSYLSQIETGDRGNPSPESLRSLAEALEVSPRELESLV,-0.331
17,HMELMKPPGYWQSLENAIYESKKVIKEHGFDTLPSSNKLRELDYHGLSRAISVHHSGFPNFREIMNQELGI,0.172
18,HMELNDEELIKGIQELLTKIGYDPGEINGVLGIKTSSAISAFQQSRNKAITGEADLDLLVQLQIELRKITT,-0.674
19,HMELNGVSETAKSVYSIILNNSSTVDDIVIKTKLPAAKVMQALTELELNDAVERKSGGVYALP,0.13
20,HMELPADLATVLSVDDIRAIALAEVPGSTITGVELEREEGVLVYKVKFNDGSYKLYDANTGELV,0.174
21,HMELPPLEPIDRILVVQQPINIREQPGVLAKKIGRVSSGETLTILAKVSGQDWYFVETDNGGRGYVFKRV,-0.555
22,HMELQYSQEIEEAQKILENLGLYRGEIDGINGINTKSAIREFQRKSGLVVDGILGPNTTNALSKGSDAYIT,0.094
23,HMELVQIIGNNIRDLMTTRSVTITDLANYLNVSRQTLQNYLRGSNIIDSVKLVAVSDFFDVPVESLLQSK,-1.04

row,Sequence,soluble fraction (log2)
1,HMEMGNKIKELRTKLGITQEELSKTLNVSSQAVSKWENGGLPDLELIPEIAKYFNVTTDYLFDIK,0.0658
2,HMEMKVIPFNQMTRDQFDQLDRFLGRLAAAQAMGSLRLTKAQQNYFLNQVKQLDLYRKRILN,-0.787
3,HMEMTSREIIKRLEEDGWYHVKTTGDHYQMKHPTKPGKVTIVHPAKDLSIGTLRSIEKQSGVRL,-0.0157
4,HMEMVSMPGLTGSTLEFATKTLTENELKYEVVYIVDASAESGLIIRTYPTEGEMVSKKTSTIYLYIKE,-0.756
5,HMENDGQFLRAEREKYGLTLTDIYEHTHIPIKKLKAYEMWEEEMPPRTRALLELYFDQVAFEYDS,-0.8
6,HMENDPYEILGIARSASDDEIKAKYRALTRENHPDILMAKGVPQEFIDLANEKMAVINAAYDKIEKER,0.292
7,HMENEDMTGDIRVIDYIRNVAEYIQTTKGQASASQMLDRFLFPPELQYTPLDKLSGGEQRRLYLLKVLMEA,0.0342
8,HMENEFEAYSDGSSIQLNDPSKATYVVFDRQGRLLHLFQNHSLSSLSIERKNQILIITRETADGVSVKKIV,-0.415
9,HMENEIPVPELVGMSEADAAAKLASLGLERDTQREATADEESVGKVLRQEPTPGEYVDEGHKVTIWVGE,-0.0704
10,HMENFSTLFSRLKEERGLSNKQISSFTGAPIKEVKKWESGMGIPTEKRIVAALEGILGSEISKAI,-0.0124
11,HMENHILIIDDDLMLLKTAEEILSDQYNVSVAKSGIQALNLLNKNIIPDLILLDIDMPQMDGYETL,-0.0279
12,HMENIIFDIGFHKGEDTLFYLLKGYRVIAVDADPDLINEWQNIFKKYIENGKLLLLNYVISDT,-1.33
13,HMENISVESKMKLLLKSLKTRDFISLPELVLKGESKLAISVILVAALELNRKGYIEVVQAEQFGEIYFKNT,-0.191
14,HMENKVLVITEEEKGKRLDVYLAAALEVSRSYAQQLIQGEDVVVNDKQVKANYRLSEGDVVQVQLD,≥ 0.62
15,HMENLIEELTAKNKEYIHSVTKQLILVGKSDEEVKEILNDILPQIIEGQKSGIIARKLLGAPTEFVSQYQP,0.011
16,HMENLQLQQLVKGLPEKMQEIVILRFSQELTMREIADIVNLPMRTVQSQLRLALKILKKEMG,-0.447
17,HMENLSFNINSEEEGQRIDKYLSVMIEGKSRSFVQGLIEEKKVKANSKVIKSNYKLKKGDFIEVEVPEPV,0.27
18,HMENLSGNDIKYLRKKYNLTQKELADALGLQKFGDRTIRRWEAEETHPSKLEQSSIQSFFNSLK,0.0091
19,HMENLTLVIGNKLKNIRNSRNLSLDDVAELTGVSKAMLGQIERGKSNPTVSTLWKISTGLRVSFSSFIDE,-2.2
20,HMENLVPVVVATTNIEPRTQITDAMVKVEQIPALGRNESMLEDPALVVGGYATGKIYAGQSFIQPMVSK,0.179
21,HMENNIILNYVKDNLNITEKDAKDLIELLGSDYYHIKNETNKIAAFLDGQPYSFEKIKNLISIDKEY,0.0808
22,HMENPLETYYSQWVSAIKREHPEASFVKDTDGKYYVEGLTKNRLAVIYENPHLVRLVNATTNLHVE,-0.305
23,HMENPVPVIITDQNFQPLLWKNVGVPTDTIFHELSPENQKKLENLMKTMVQMPLTDDGRISGYAYYSK,-0.195

row,Sequence,soluble fraction (log2)
1,HMENQFNDWSLTPSEKEVALFMLKGLSTQEIAAARNTKEKTVRQQASAVYAKSQLDGRYALAAWFFEDI,-0.567
2,HMENQMIIYIDENDENKRLDSYLSEITPDYSRSKIQNFIKNGNVTVNDSNKKPSYLLKENDKISFELPQQ,0.00635
3,HMENSLLSESLAKIYIKTHRYERAYEILSRLSLAVPEKNAYFADQLRFLRKVMLAESFRKQHS,-0.00623
4,HMENTSPMTPEQSKALMAYLTKRHGDSREAYLSELSQFFGRPLSSSRELTKADVSEFLNAIN,0.161
5,HMENVVESIYNKMVESITNGQWAAGSKIPTENELAKTYQVSRSSVRQAISRLKALGLLESRQGSGTVIKK,0.272
6,HMENWMPNLVNQDKRLAINTLRELGFTEEAGNLVIREETSEDVTKDYVISTDPVAETDLADVEKVTLVVSS,0.0767
7,HMENYIEQLTAKNSEYIHVVTRELVKIGKSDEEIKAILSDILPQIVAAQDQRVLAKDILGTPSEFTAKYAP,0.173
8,HMEPDDLTVIKGIGPVAAKDLNEQGIITFAQLAKLSDKDVAKIDEHMPFSADQIKDWREQAKELAK,0.263
9,HMEPDEIVLDHRKRIENSDAIVLIAPIWNFRMPAILEGWIDKVLAPPWAFKFKKLFGNYGYPVGNLKG,0.103
10,HMEPDTVVVPNFVGKVYASEIEGNEAYSDFTFVIKEGNDPEQDIGVVLKQTPNEGLEVKKGKEITLTINQ,-0.0593
11,HMEPEAKIDFILKAAQKRLGLYGYEKTTMQEIAADINMSKAALYYYFPDKESLFKAVVENEQEEYFH,-1.63
12,HMEPEDVIAMERYLASGAIKGIGVTLAGRIIKKFQKETFHIIEEEPERLSEVKGISEKLAREIYQQFTQK,-0.873
13,HMEPERRHLEVPAEAEGERIDRFLASQLENLSRSRIQALIKAGYVRNRRGTIEDPGLRVKPGDAFVVDLPP,0.44
14,HMEPEVEITYFKPDERKAGGAYVTVTGAVIKVDDFERLITMQDGTKIPMDDILSIDGELFLS,-0.333
15,HMEPGEVQVDGLRFIAQPQERNDFEVALEQFRAGNFAAARKSFAAFINTYKQSGYLPSARFW,-0.0516
16,HMEPLKLGDATGDGKINLQDVLEMQKHMAGILVLKGKFFTAADVNGNGKIELVDVLSVQKYLAGVTAEV,0.00939
17,HMEPLVSKVFQVSYQKTADLVALIKSEDSKLLSARGTLISDERTSQIFVQDTPTRLERISMIVNGL,-0.883
18,HMEPMNMYSSIKKVIGVVSGKGGVGKSLVTASLARMMRAKGYHVGIMDADITGPSIPKMYGLHEMA,0.42
19,HMEPVDYEALRKELMQKVMGLFTQSRDVGIQILSSFGAKKLSDVPDDKLVAFAASVDKALAG,-0.0404
20,HMEPVQFIQFKIPDGHPWSGQLLREVRLPPGTLVVLLKHDGKNIIPNGETPLLAGDSVILSAASPT,-0.197
21,HMEQAAQPQTGFDPRRLKAGDAVHLLALDQRGVLLEDPKPGAESAPVSVGVAGVRVVVPLREMEALPAG,0.157
22,HMEQEVLDLLFDAIRSLPEKYRRLFDMSFEQGLKNAEIAALLHVSESAVKKQKASMIQQLRDDLLRKTGKD,-0.693
23,HMEQFDFTILRELRKRAGLSIGEVSAESGVSAAVISKLERNRTRAELDTLYRLARVFGITAAELLNLAEA,-2.06
